What all share (conditions): La3+ as metal cofactor; PQQ enzyme; artificial electron acceptor PMS/DCPIP
Substrate in data set [1]: CO
In words: PMS-mediated DCPIP reduction, Michaelis-Menten fit. The format is biochemical, Methylorubrum extorquens.

Substrate in data set [2]: CCO
As to the kind of experiment: PMS-mediated DCPIP reduction, Michaelis-Menten fit. It is filed as biochemical, Methylorubrum extorquens.

Substrate in the data set “purified protein”: C=O
In words: purified protein.

One may read the Km as the concentration of substrate that gives half-maximal velocity.

B1: XoxF1 MDH (XoxF1-La) (Methylorubrum extorquens AM1) (protein)
chain: NESVLKGVANPAEQVLQTVDYANTRYSKLDQINASNVKNLQVAWTFSTGVLRGHEGSPLVVGNIMYVHTPFPNIVYALDLDQGAKIVWKYEPKQDPSVIPVMCCDTVNRGLAYADGAILLHQADTTLVSLDAKSGKVNWSVKNGDPSKGETNTATVLPVKDKVIVGISGGEFGVQCHVTAYDLKSGKKVWRGYSIGPDDQLIVDPEKTTSLGKPIGKDSSLKTWEGDQWKTGGGCTWGWFSYDPKLDLMYYGSGNPSTWNPKQRPGDNKWSMTIWARNPDTGMAKWVYQMTPHDEWDFDGINEMILTDQKFDGKDRPLLTHFDRNGFGYTLDRATGEVLVAEKFDPVVNWATKVDLDKGSKTYGRPLVVSKYSTEQNGEDVNSKGICPAALGTKDQQPAAFSPKTGLFYVPTNHVCMDYEPFRVTYTPGQPYVGATLSMYPAPGSHGGMGNFIAWDNLQGKIKWSNPEQFSAWGGALATAGDVVFYGTLEGFLKAVDSKTGKELYKFKTPSGIIGNVMTYEHKGKQHVAVLSGVGGWAGIGLAAGLTDPNAGLGAVGGYAALSSYTNLGGQLTVFSLPNN
With B1, the Km stood at 44 µM in data set [1], 639 µM in data set [2] and 96 µM in the data set “purified protein”.
